# T1: Ep-CAM (UniProt P16422 24-265, limits assumed)
# T1 construct: Amine coupled to a CM5 chip in the Biacore assays
# T1 sequence (looked up): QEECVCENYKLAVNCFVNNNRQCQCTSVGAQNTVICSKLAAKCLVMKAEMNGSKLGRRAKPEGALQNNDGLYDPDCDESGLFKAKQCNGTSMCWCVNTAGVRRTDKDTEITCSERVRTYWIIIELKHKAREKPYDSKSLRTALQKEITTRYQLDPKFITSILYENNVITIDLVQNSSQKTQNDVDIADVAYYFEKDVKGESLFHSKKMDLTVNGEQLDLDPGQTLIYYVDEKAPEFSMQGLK
# B1: ING-1 light chain Y54N (Fab, V domains shown)
# VH: QIQLVQSGPELKKPGETVKISCKASGYTFTKYGMNWVKQAPGKGLKWMGWINTYTEEPTYGDDFKGRFAFSLETSASTANLQINNLKSEDTATYFCARFGSAVDYWGQGTSVTVSS
# VL: DIVMTQAAFSNPVTLGTSGSISCRSSKSLLHSNGITYLYWYLQKPGQSPQLLINQMSNLASGVPDRFSSSGSGTDFTLRISRVEAEDVGVYYCAQNLELPRTFGGGTKLEMKR
# notes: Fab, periplasmic extract
# B2: ING-1 light chain Y54R (Fab, V domains shown)
# VH: QIQLVQSGPELKKPGETVKISCKASGYTFTKYGMNWVKQAPGKGLKWMGWINTYTEEPTYGDDFKGRFAFSLETSASTANLQINNLKSEDTATYFCARFGSAVDYWGQGTSVTVSS
# VL: DIVMTQAAFSNPVTLGTSGSISCRSSKSLLHSNGITYLYWYLQKPGQSPQLLIRQMSNLASGVPDRFSSSGSGTDFTLRISRVEAEDVGVYYCAQNLELPRTFGGGTKLEMKR
# notes: Fab, periplasmic extract
# B3: ING-1 light chain Y54S (Fab, V domains shown)
# VH: QIQLVQSGPELKKPGETVKISCKASGYTFTKYGMNWVKQAPGKGLKWMGWINTYTEEPTYGDDFKGRFAFSLETSASTANLQINNLKSEDTATYFCARFGSAVDYWGQGTSVTVSS
# VL: DIVMTQAAFSNPVTLGTSGSISCRSSKSLLHSNGITYLYWYLQKPGQSPQLLISQMSNLASGVPDRFSSSGSGTDFTLRISRVEAEDVGVYYCAQNLELPRTFGGGTKLEMKR
# notes: Fab, periplasmic extract
# B4: XPA23 light chain S53T (Fab, V domains shown)
# VH: EVQLLESGGGLVQPGGSLRLSCAASGFTFSKYFMFWVRQAPGKGLEWVSVISPSGGMTRYADSVKGRFTISRDNSKNTLYLQMNSLRAEDTAVYYCARVGYGGNSDYWGQGTLVTVSS
# VL: DIQMTQSPSSVSASVGDRLTIICRASQDINRWLAWYQQTPGNAPKLLIHSATTLQSGVPSRFSGSGSGTDFTLTINSLQPEDFATYYCQQADSFPLTFGGGTKVEIK
# notes: Single light chain substitution; Fab in periplasmic extract; also called C5A (XPA23) S53T
# B5: XPA23 light chain D92G (Fab, V domains shown)
# VH: EVQLLESGGGLVQPGGSLRLSCAASGFTFSKYFMFWVRQAPGKGLEWVSVISPSGGMTRYADSVKGRFTISRDNSKNTLYLQMNSLRAEDTAVYYCARVGYGGNSDYWGQGTLVTVSS
# VL: DIQMTQSPSSVSASVGDRLTIICRASQDINRWLAWYQQTPGNAPKLLIHSATSLQSGVPSRFSGSGSGTDFTLTINSLQPEDFATYYCQQAGSFPLTFGGGTKVEIK
# notes: Single light chain substitution; Fab in periplasmic extract; also called C5A (XPA23) D92G
# B6: XPA23 light chain A91P (Fab, V domains shown)
# VH: EVQLLESGGGLVQPGGSLRLSCAASGFTFSKYFMFWVRQAPGKGLEWVSVISPSGGMTRYADSVKGRFTISRDNSKNTLYLQMNSLRAEDTAVYYCARVGYGGNSDYWGQGTLVTVSS
# VL: DIQMTQSPSSVSASVGDRLTIICRASQDINRWLAWYQQTPGNAPKLLIHSATSLQSGVPSRFSGSGSGTDFTLTINSLQPEDFATYYCQQPDSFPLTFGGGTKVEIK
# notes: Single light chain substitution; Fab in periplasmic extract; also called C5A (XPA23) A91P
# B7: XPA23 light chain F94G (Fab, V domains shown)
# VH: EVQLLESGGGLVQPGGSLRLSCAASGFTFSKYFMFWVRQAPGKGLEWVSVISPSGGMTRYADSVKGRFTISRDNSKNTLYLQMNSLRAEDTAVYYCARVGYGGNSDYWGQGTLVTVSS
# VL: DIQMTQSPSSVSASVGDRLTIICRASQDINRWLAWYQQTPGNAPKLLIHSATSLQSGVPSRFSGSGSGTDFTLTINSLQPEDFATYYCQQADSGPLTFGGGTKVEIK
# notes: Single light chain substitution; Fab in periplasmic extract; also called C5A (XPA23) F94G
# B8: XPA23 light chain D92V (Fab, V domains shown)
# VH: EVQLLESGGGLVQPGGSLRLSCAASGFTFSKYFMFWVRQAPGKGLEWVSVISPSGGMTRYADSVKGRFTISRDNSKNTLYLQMNSLRAEDTAVYYCARVGYGGNSDYWGQGTLVTVSS
# VL: DIQMTQSPSSVSASVGDRLTIICRASQDINRWLAWYQQTPGNAPKLLIHSATSLQSGVPSRFSGSGSGTDFTLTINSLQPEDFATYYCQQAVSFPLTFGGGTKVEIK
# notes: Single light chain substitution; Fab in periplasmic extract; also called C5A (XPA23) D92V
# B9: XPA23 light chain D92P (Fab, V domains shown)
# VH: EVQLLESGGGLVQPGGSLRLSCAASGFTFSKYFMFWVRQAPGKGLEWVSVISPSGGMTRYADSVKGRFTISRDNSKNTLYLQMNSLRAEDTAVYYCARVGYGGNSDYWGQGTLVTVSS
# VL: DIQMTQSPSSVSASVGDRLTIICRASQDINRWLAWYQQTPGNAPKLLIHSATSLQSGVPSRFSGSGSGTDFTLTINSLQPEDFATYYCQQAPSFPLTFGGGTKVEIK
# notes: Single light chain substitution; Fab in periplasmic extract; also called C5A (XPA23) D92P
# B10: XPA23 light chain D92A (Fab, V domains shown)
# VH: EVQLLESGGGLVQPGGSLRLSCAASGFTFSKYFMFWVRQAPGKGLEWVSVISPSGGMTRYADSVKGRFTISRDNSKNTLYLQMNSLRAEDTAVYYCARVGYGGNSDYWGQGTLVTVSS
# VL: DIQMTQSPSSVSASVGDRLTIICRASQDINRWLAWYQQTPGNAPKLLIHSATSLQSGVPSRFSGSGSGTDFTLTINSLQPEDFATYYCQQAASFPLTFGGGTKVEIK
# notes: Single light chain substitution; Fab in periplasmic extract; also called C5A (XPA23) D92A
# B11: XPA23 light chain A91V (Fab, V domains shown)
# VH: EVQLLESGGGLVQPGGSLRLSCAASGFTFSKYFMFWVRQAPGKGLEWVSVISPSGGMTRYADSVKGRFTISRDNSKNTLYLQMNSLRAEDTAVYYCARVGYGGNSDYWGQGTLVTVSS
# VL: DIQMTQSPSSVSASVGDRLTIICRASQDINRWLAWYQQTPGNAPKLLIHSATSLQSGVPSRFSGSGSGTDFTLTINSLQPEDFATYYCQQVDSFPLTFGGGTKVEIK
# notes: Single light chain substitution; Fab in periplasmic extract; also called C5A (XPA23) A91V
# B12: XPA23 light chain D92T (Fab, V domains shown)
# VH: EVQLLESGGGLVQPGGSLRLSCAASGFTFSKYFMFWVRQAPGKGLEWVSVISPSGGMTRYADSVKGRFTISRDNSKNTLYLQMNSLRAEDTAVYYCARVGYGGNSDYWGQGTLVTVSS
# VL: DIQMTQSPSSVSASVGDRLTIICRASQDINRWLAWYQQTPGNAPKLLIHSATSLQSGVPSRFSGSGSGTDFTLTINSLQPEDFATYYCQQATSFPLTFGGGTKVEIK
# notes: Single light chain substitution; Fab in periplasmic extract; also called C5A (XPA23) D92T
# B13: XPA23 light chain A91I (Fab, V domains shown)
# VH: EVQLLESGGGLVQPGGSLRLSCAASGFTFSKYFMFWVRQAPGKGLEWVSVISPSGGMTRYADSVKGRFTISRDNSKNTLYLQMNSLRAEDTAVYYCARVGYGGNSDYWGQGTLVTVSS
# VL: DIQMTQSPSSVSASVGDRLTIICRASQDINRWLAWYQQTPGNAPKLLIHSATSLQSGVPSRFSGSGSGTDFTLTINSLQPEDFATYYCQQIDSFPLTFGGGTKVEIK
# notes: Single light chain substitution; Fab in periplasmic extract; also called C5A (XPA23) A91I
# B14: XPA23 light chain A91L (Fab, V domains shown)
# VH: EVQLLESGGGLVQPGGSLRLSCAASGFTFSKYFMFWVRQAPGKGLEWVSVISPSGGMTRYADSVKGRFTISRDNSKNTLYLQMNSLRAEDTAVYYCARVGYGGNSDYWGQGTLVTVSS
# VL: DIQMTQSPSSVSASVGDRLTIICRASQDINRWLAWYQQTPGNAPKLLIHSATSLQSGVPSRFSGSGSGTDFTLTINSLQPEDFATYYCQQLDSFPLTFGGGTKVEIK
# notes: Single light chain substitution; Fab in periplasmic extract; also called C5A (XPA23) A91L
# B15: XPA23 light chain D92I (Fab, V domains shown)
# VH: EVQLLESGGGLVQPGGSLRLSCAASGFTFSKYFMFWVRQAPGKGLEWVSVISPSGGMTRYADSVKGRFTISRDNSKNTLYLQMNSLRAEDTAVYYCARVGYGGNSDYWGQGTLVTVSS
# VL: DIQMTQSPSSVSASVGDRLTIICRASQDINRWLAWYQQTPGNAPKLLIHSATSLQSGVPSRFSGSGSGTDFTLTINSLQPEDFATYYCQQAISFPLTFGGGTKVEIK
# notes: Single light chain substitution; Fab in periplasmic extract; also called C5A (XPA23) D92I
# B16: XPA23 light chain D92L (Fab, V domains shown)
# VH: EVQLLESGGGLVQPGGSLRLSCAASGFTFSKYFMFWVRQAPGKGLEWVSVISPSGGMTRYADSVKGRFTISRDNSKNTLYLQMNSLRAEDTAVYYCARVGYGGNSDYWGQGTLVTVSS
# VL: DIQMTQSPSSVSASVGDRLTIICRASQDINRWLAWYQQTPGNAPKLLIHSATSLQSGVPSRFSGSGSGTDFTLTINSLQPEDFATYYCQQALSFPLTFGGGTKVEIK
# notes: Single light chain substitution; Fab in periplasmic extract; also called C5A (XPA23) D92L
# B17: XPA23 light chain A91T (Fab, V domains shown)
# VH: EVQLLESGGGLVQPGGSLRLSCAASGFTFSKYFMFWVRQAPGKGLEWVSVISPSGGMTRYADSVKGRFTISRDNSKNTLYLQMNSLRAEDTAVYYCARVGYGGNSDYWGQGTLVTVSS
# VL: DIQMTQSPSSVSASVGDRLTIICRASQDINRWLAWYQQTPGNAPKLLIHSATSLQSGVPSRFSGSGSGTDFTLTINSLQPEDFATYYCQQTDSFPLTFGGGTKVEIK
# notes: Single light chain substitution; Fab in periplasmic extract; also called C5A (XPA23) A91T
# B18: XPA23 light chain F94A (Fab, V domains shown)
# VH: EVQLLESGGGLVQPGGSLRLSCAASGFTFSKYFMFWVRQAPGKGLEWVSVISPSGGMTRYADSVKGRFTISRDNSKNTLYLQMNSLRAEDTAVYYCARVGYGGNSDYWGQGTLVTVSS
# VL: DIQMTQSPSSVSASVGDRLTIICRASQDINRWLAWYQQTPGNAPKLLIHSATSLQSGVPSRFSGSGSGTDFTLTINSLQPEDFATYYCQQADSAPLTFGGGTKVEIK
# notes: Single light chain substitution; Fab in periplasmic extract; also called C5A (XPA23) F94A
# B19: XPA23 light chain A91G (Fab, V domains shown)
# VH: EVQLLESGGGLVQPGGSLRLSCAASGFTFSKYFMFWVRQAPGKGLEWVSVISPSGGMTRYADSVKGRFTISRDNSKNTLYLQMNSLRAEDTAVYYCARVGYGGNSDYWGQGTLVTVSS
# VL: DIQMTQSPSSVSASVGDRLTIICRASQDINRWLAWYQQTPGNAPKLLIHSATSLQSGVPSRFSGSGSGTDFTLTINSLQPEDFATYYCQQGDSFPLTFGGGTKVEIK
# notes: Single light chain substitution; Fab in periplasmic extract; also called C5A (XPA23) A91G
# B20: XPA23 light chain F94I (Fab, V domains shown)
# VH: EVQLLESGGGLVQPGGSLRLSCAASGFTFSKYFMFWVRQAPGKGLEWVSVISPSGGMTRYADSVKGRFTISRDNSKNTLYLQMNSLRAEDTAVYYCARVGYGGNSDYWGQGTLVTVSS
# VL: DIQMTQSPSSVSASVGDRLTIICRASQDINRWLAWYQQTPGNAPKLLIHSATSLQSGVPSRFSGSGSGTDFTLTINSLQPEDFATYYCQQADSIPLTFGGGTKVEIK
# notes: Single light chain substitution; Fab in periplasmic extract; also called C5A (XPA23) F94I
# Target: T1, Ep-CAM
# Assay: Biacore, Fab periplasmic extract
Binder,binding result,fold difference in affinity vs parental ING-1 [fold]
B1,no binding,
B2,no binding,
B3,,0.9

# Target: IL-1β (UniProt P01584 117-269)
# Assay: Biacore, Fab periplasmic extract on IL-1β
Binder,fold difference in affinity vs original [fold],binding result
B4,0.95,
B5,0.26,
B6,,no binding
B7,,no binding
B8,,no binding
B9,,no binding
B10,0.4,
B11,0.51,
B12,0.34,
B13,,no binding
B14,0.39,
B15,0.33,
B16,0.14,
B17,0.67,
B18,,no binding
B19,,no binding
B20,0.88,

# Reference: patent US20110118131A1 (published 2011)
